Among the data in PMC8041999 are ratio to parent values, retold here.

B1: FLAG-tagged KIR2DL3, full-length, wild type, on 293T cells [human] / HLA-C*07:02-RL9 tetramer (phycoerythrin-conjugated) [modified: biotin (enzymatically, with biotin ligase)] [human | not stated] (parent)
chain 1: HEGVHRKPSLLAHPGPLVKSEETVILQCWSDVRFQHFLLHREGKFKDTLHLIGEHHDGVSKANFSIGPMMQDLAGTYRCYGSVTHSPYQLSAPSDPLDIVITGLYEKPSLSAQPGPTVLAGESVTLSCSSRSSYDMYHLSREGEAHERRFSAGPKVNGTFQADFPLGPATHGGTYRCFGSFRDSPYEWSNSSDPLLVSVTGNPSNSWPSPTEPSSETGNPRHLHVLIGTSVVIILFILLLFFLLHRWCCNKKNAVVMDQEPAGNRTVNREDSDEQDPQEVTYAQLNHCVFTQRKITRPSQRPKTPPTDIIVYTELPNAEP
chain 2: not shown
chain 3: not shown
chain 4: RYRPGTVAL
B2: FLAG-tagged KIR2DL2, full-length, wild type, on 293T cells [human] / HLA-C*03:04-GL9 tetramer (phycoerythrin-conjugated) [modified: biotin (enzymatically, with biotin ligase)] [human] (parent)
chain 1: HEGVHRKPSLLAHPGRLVKSEETVILQCWSDVRFEHFLLHREGKFKDTLHLIGEHHDGVSKANFSIGPMMQDLAGTYRCYGSVTHSPYQLSAPSDPLDIVITGLYEKPSLSAQPGPTVLAGESVTLSCSSRSSYDMYHLSREGEAHECRFSAGPKVNGTFQADFPLGPATHGGTYRCFGSFRDSPYEWSNSSDPLLVSVIGNPSNSWPSPTEPSSKTGNPRHLHILIGTSVVIILFILLFFLLHRWCSNKKNAAVMDQESAGNRTANSEDSDEQDPQEVTYTQLNHCVFTQRKITRPSQRPKTPPTDIIVYAELPNAESRSKVVSCP
chain 2: not shown
chain 3: not shown
chain 4: GAVDPLLAL
B3: FLAG-tagged KIR2DL3, full-length, wild type, on 293T cells [human] / HLA-C*03:04-GL9 tetramer (phycoerythrin-conjugated) [modified: biotin (enzymatically, with biotin ligase)] [human] (parent)
chain 1: B1 chain 1
chain 2: not shown
chain 3: not shown
chain 4: GAVDPLLAL
B4: FLAG-tagged KIR2DL2, full-length, wild type, on 293T cells [human] / HLA-C*07:02-RL9 tetramer (phycoerythrin-conjugated) [modified: biotin (enzymatically, with biotin ligase)] [human | not stated] (parent)
chain 1: B2 chain 1
chain 2: not shown
chain 3: not shown
chain 4: RYRPGTVAL

Variants of B1 are the subject of the first experiment. In words: flow cytometry, HLA tetramer staining of transfected 293T cells. The following applies: with HLA-C*07:02-RL9 tetramer (phycoerythrin-conjugated) [modified: biotin (enzymatically, with biotin ligase)] [human | not stated]; percentage tetramer+ normalised to percentage FLAG+; read off a plot.
Regarding chain 1 F181A, the ratio to parent amounted to 0.06.

A further experiment covers variants of B2. The description is as above. The following applies: with HLA-C*03:04-GL9 tetramer (phycoerythrin-conjugated) [modified: biotin (enzymatically, with biotin ligase)] [human]; percentage tetramer+ normalised to percentage FLAG+; read off a plot.
In the case of chain 1 F181A, the ratio to parent is 0.05.

In another experiment the parent is B3. The description is as above. The settings on record: with HLA-C*03:04-GL9 tetramer (phycoerythrin-conjugated) [modified: biotin (enzymatically, with biotin ligase)] [human]; percentage tetramer+ normalised to percentage FLAG+; read off a plot.
On to chain 1 F181A, for which the ratio to parent was 0.07.

Another experiment covers variants of B4. The experiment is described as above. The following applies: with HLA-C*07:02-RL9 tetramer (phycoerythrin-conjugated) [modified: biotin (enzymatically, with biotin ligase)] [human | not stated]; percentage tetramer+ normalised to percentage FLAG+; read off a plot.
Take chain 1 F181A: the ratio to parent was 0.02.
